Data as given in patent US20100015685A1, “LACTOBACILLUS N-DEOXYRIBOSYL TRANSFERASES, CORRESPONDING NUCLEOTIDE SEQUENCES AND THEIR USES” (INSTITUT PASTEUR, priority 2001, published 2010).

B1: ntd: N-deoxyribosyltransferase of SEQ ID No. 6 coded by the ntd Lf gene of Lactobacillus fermentum (protein)
chain: LKNTDPVANTKIYLATSFFNEEQRARIPQALAQLEANPTVGVVHQPFDFQYKDARVDSDPAGVFGSLEWQIATYNNDLNAVGTSDVCVALYDMDQIDEGICMEIGMFVALHKPIVLLPFTKKDKSAYEANLMLARGVTTWLEPNDFSPLKDFNFNHPMAQPFPPFKVF
modifications: Lactobacillus fermentum NTD
B2: ptd Lh: N-deoxyribosyltransferase of SEQ ID No. 4 coded by the ptd Lh gene of Lactobacillus helveticus (purine deoxyribosyltransferase) (protein)
chain: MKAVVPTGKIYLGSPFYSDAQRERAAKAKELLAKNLSIAHVFFPFDDGFTDPDEKNPEIGGIRSMVWRDATYQNDLTGISNATCGVFLYDMDQLDDGSAFEIGFMRAMHKPVILVPFTEHPEKEKKMNLMIAQGVTTIIDGNTEFEKLADYNFNECPFNPVRGYGIY
modifications: Lactobacillus helveticus PTD
B3: ntd Lh: N-deoxyribosyltransferase of SEQ ID No. 2 (or SEQ ID No. 14) coded by the ntd Lh gene of Lactobacillus helveticus (protein)
chain: MNKKKTLYFGAGWFNEKQNKAYKEAMAALKENPTVDLENSYVPLENQYKGIRIDEHPEYLHNIEWASATYHNDLVGIKTSDVMLGVYLPEEEDVGLGMELGYALSQGKYILLVIPDEDYGKPINLMSWGVCDNAIKISELKDFDFNKPRYNFYDGAVY
modifications: Lactobacillus helveticus NTD

What was measured:
[1] = system: PAK 26 strain; assay: Nutritional screening in PAK 26 strain to distinguish deoxyribosyltransferase I and II activities; format: cell-based, Escherichia coli; conditions: plasmid of selected transforming clones; deoxyguanosine and thymine as sources of guanine and thymidine
Text: Preferably this strain is incapable of growing in the presence of deoxyguanosine as a source of guanine. In preferred manner, it is the PAK 6 strain. • (ii) transfer of exogenous DNA, preferably in the form of an expression vector, into the bacterium, the exogenous DNA being capable of comprising a sequence coding for a deoxyribosyltransferase. • (iii) culture of the bacteria obtained in Stage (ii) on a medium containing deoxyguanosine. • (iv) isolation of the exogenous DNA transferred into the bacteria of Stage (iii) which have developed on the medium containing deoxyguanosine. The present invention also provides a nutritional screening for distinguishing the deoxyribosyltransferase I and II activities, preferably in particular for distinguishing between the ntd and ptd polypeptides according to the invention. This second screening comprises the stages of: • (i) obtaining a bacterial strain such as for example Escherichia coli, auxotrophic for guanine and thymidine. Preferably, this strain is incapable of growing in the presence of guanine and thymidine. In preferred manner, it is the PAK 26 strain (Δ guaBguaA::Δdeo-11 ΔthyA::erm Δ (udp-metE) zif9::Tn10) is auxotrophic for methionine, guanine and thymidine. • (ii) transfer of the exogenous DNA, preferably in the form of an expression vector, into the bacterium, the exogenous DNA being capable of comprising a sequence coding for a deoxyribosyltransferase I or II. • (iii) culture of the bacteria obtained in Stage (ii) on a medium containing deoxyguanosine, then determination of whether the bacteria are growing or not. If the bacteria are growing, then the exogenous DNA codes for a deoxyribosyltransferase II activity which is expressed in said bacterium. If the bacteria are not growing, then the exogenous DNA is capable of coding for a deoxyribosyltransferase I activity. Other characteristics and advantages of the invention are clear from the rest of the description, with examples represented hereafter. […]

[2] = system: N-deoxyribosyltransferase activity; assay: Enzymatic activity of corresponding raw extracts (in vitro); format: biochemical; set-up: key: (+) growth; (−) absence of growth; conditions: for Enzymatic activity of raw extracts, dC + A: substrates deoxycytidine + adenine; for Enzymatic activity of raw extracts, dC + T: substrates deoxycytidine + thymine; for Enzymatic activity of raw extracts, dG + A: substrates deoxyguanosine + adenine
[3] = system: PAK 6 strain; assay: Growth of the PAK 6 strain on a glucose mineral medium (in vivo nutritional screening); format: cell-based, Escherichia coli; set-up: key: (+) growth; (−) absence of growth; conditions: for Growth of the PAK 6 strain, A: glucose mineral medium with adenine; for Growth of the PAK 6 strain, dG + A: glucose mineral medium with deoxyguanosine + adenine; for Growth of the PAK 6 strain, G: glucose mineral medium with guanine
Text: A functional screening allowing the production of guanine to be selected was established on E. coli by deleting the two genes of the guaBA operon which controls the conversion of IMP into XMP then into GMP and also those of the deoCABD operon which controls the degradation of deoxynucleosides to give the PAK 6 strain. The E. coli genome specifies an activity allowing the base G to be converted into GMP (guanine phosphoribosyltransferase encoded by the gpt gene), and also an activity allowing the base G to be released from the dR-G deoxynucleoside (purine nucleoside phosphorylase encoded by the deoD gene in the deo operon). The PAK 6 strain thus has a requirement for guanine (G) which cannot be satisfied by the addition of deoxyguanosine (dR-G). The use of deoxyguanosine (dR-G) can however be selected if an N-deoxyribosyltransferase activity is expressed in the PAK6 strain in order to carry out the exchange: dR-G+A<->dR-A+G.
This exchange between two purine bases can be catalyzed by the two enzyme classes.
DNA fragments of a size comprised between 1 and 2 kb obtained by partial digestion (AluI) of L. helveticus CNRZ 32 were ligated in a ColE1 plasmid (of pUC type digested by SmaI and desphosphorylated) and the mixture is used to transform the PAK6 strain. The transforming clones were selected in a glucose mineral medium to which deoxyguanosine (dR-G) and adenine (A) have been added to the final concentration of 0.3 mM.

| Molecule | Class of N-deoxyribosyltransferase activity (I or II) [1] | Enzymatic activity of raw extracts, dC + A [2] | Enzymatic activity of raw extracts, dC + T [2] | Enzymatic activity of raw extracts, dG + A [2] | Growth of the PAK 6 strain, A [3] | Growth of the PAK 6 strain, dG + A [3] | Growth of the PAK 6 strain, G [3] |
| --- | --- | --- | --- | --- | --- | --- | --- |
| B1 | Class II N-deoxyribosyltransferase activity | + | + | + | − | + | + |
| B2 | Class I N-deoxyribosyltransferase activity | − | − | + | − | + | + |
| B3 | Class II N-deoxyribosyltransferase activity | + | + | + | − | + | + |
